Key:
Test in all cases: pull-down binding Z-score (relative to library population); higher = stronger binding
[1] = test system: TO-3-N3-2 (biotin conjugate); settings: RNA library: Library-2
Method in brief: (§1)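 Streptavidin beads bearing 100 pmol of a biotin-conjugated small molecule were incubated for 60 min at 25 °C with 1 μg of heat-folded, Cy5- or Cy3-end-labelled RNA library in phosphate/NaCl/KCl buffer. Hot SDS eluted the RNA that stayed bound after three washes, and this RNA was hybridised for 20 h at 55.5 °C to a DNA barcode microarray. Binding was expressed as a Z-score against the library mean and standard deviation, after subtraction of a beads-only signal and trimmed averaging of barcoded replicate probes.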

TO-N3 (biotin conjugate) = settings: RNA library: Library-2
Method in brief: as §1

[2] = test system: TO-3-N3 (biotin conjugate); settings: RNA library: Library-2
Method in brief: as §1

[3] = test system: TO-N3-2 (biotin conjugate); settings: RNA library: Library-2
Method in brief: as §1

[4] = test system: G-clamp-N3 (biotin conjugate); settings: RNA library: Library-1 (pre-miRNA loops + repeats)
Method in brief: as §1

Row | Sequence | pull-down binding Z-score [1] | pull-down binding Z-score (TO-N3 (biotin conjugate)) | pull-down binding Z-score [2] | pull-down binding Z-score [3] | pull-down binding Z-score [4]
1 | CAGCCUGGGGCAUCGGUUG [hsa-mir-5572] | 1.31 | 2.01 | 2.41 | 1.02 | -0.0198
2 | CAGCCUGUUGUCAAGGCUG [hsa-mir-3130-1] | 0.129 | 0.712 | 0.535 | -0.199 | -0.13
3 | CAGCCUUGACAACAGGCUG [hsa-mir-3130-2] | -0.184 | 0.391 | 0.503 | -0.289 | -0.151
4 | CAGCUACACAAGCUG [hsa-mir-631] | -0.33 | -0.53 | -0.0598 | -0.859 | 1.64
5 | CAGCUGUUGUCUCCAGAGCAUUCCAGCUG [hsa-mir-191] | -0.002 | 0.648 | 0.371 | 1.46 | -0.433
6 | CAGCUUGCUCUGCUUU [hsa-mir-4303] | 0.0132 | -0.189 | -0.387 | 0.0746 | 0.072
7 | CAGGAGUGGACACCUG [hsa-mir-1246] | -0.238 | -0.198 | -0.0928 | -0.454 | -0.505
8 | CAGGAUUAGUGCUUAUGCUAAGAUGUCUUCACUG [hsa-mir-6773] | -0.269 | -0.75 | -0.824 | -0.301 | 0.887
9 | CAGGCAGUGGAGUUACUU [hsa-mir-600] | 0.557 | 1.01 | 0.683 | 1 | -1.07
10 | CAGGCCAGGGGCAGACAGUGGACAGAGAACAGUGCCCAAGACCACUG [hsa-mir-378e] | 0.736 | 1.27 | 0.426 | 1.73 | 1.13
11 | CAGGCGGGGCAGCCCAAUGCCAUGGGCCUGAU [hsa-mir-4695] | 0.157 | 1.32 | 0.737 | 1.92 | 2.14
12 | CAGGCUGCUAAACAACAGAACGAGCACUG [hsa-mir-378f] | -0.122 | -0.0846 | -0.22 | 0.421 | 0.125
13 | CAGGCUGGUCUCAAACUCCUGGUCUG [hsa-mir-1285-1] | -0.352 | -0.217 | -0.202 | -0.123 | -0.288
14 | CAGGCUGUGGCUCUCUGAAAGUC [hsa-mir-148b] | 0.496 | 1.09 | 0.761 | 1.18 | -1.29
15 | CAGGGAACUUUAAAACC [hsa-mir-4324] | 0.387 | 0.483 | 0.41 | 0.306 | 0.493
16 | CAGGGCGGUGCGGCAGCCGCCACC [hsa-mir-3621] | 0.241 | 1.07 | 0.771 | 1.24 | -0.214
17 | CAGGGGUUCUGAUAAACCCUUC [hsa-mir-6738] | -0.3 | 0.458 | 0.622 | 0.161 | -0.182
18 | CAGGUAGUUUUGGCAUGACUCUACUG [hsa-mir-20b] | -0.229 | 0.556 | 0.0561 | 1.44 | -0.719
19 | CAGGUGCCUCAAAGGGCAUCCCACCUG [hsa-mir-3151] | -0.452 | -0.673 | -0.578 | 0.0349 | -0.124

Row | Sequence | pull-down binding Z-score [1] | pull-down binding Z-score (TO-N3 (biotin conjugate)) | pull-down binding Z-score [2] | pull-down binding Z-score [3] | pull-down binding Z-score [4]
20 | CAGGUGUUCUUAAAAUCACCUG [hsa-mir-875] | -0.143 | -0.806 | -0.63 | -1.05 | -0.405
21 | CAGUAAGCCUUGACUUAUGGCUAAAUGCUUC [hsa-mir-4273] | 0.0166 | 0.0209 | -0.111 | 0.273 | -1.02
22 | CAGUACUGGUCUUAGACUG [hsa-mir-554] | 0.172 | 0.368 | 0.477 | 0.25 | 0.887
23 | CAGUAUGAAUGAAUUCAUGAUACUG [hsa-mir-3607] | -0.718 | -0.881 | -0.768 | -0.531 | 0.669
24 | CAGUCAGUAAAUAUUUUUUUGUGAAUG [hsa-mir-511] | 0.0526 | -0.146 | -0.305 | -0.132 | 0.202
25 | CAGUCCUGAGAUGCAGGGACUG [hsa-mir-4799] | -0.531 | -0.644 | -0.626 | -0.727 | 0.166
26 | CAGUGAACUAUCAUUGUGCCACUG [hsa-mir-1254-1] | -0.125 | 0.135 | 0.06 | -0.0953 | 0.978
27 | CAGUGACAUGCGUUUAAC [hsa-mir-4485] | 0.112 | 0.394 | 0.345 | 0.0479 | -0.778
28 | CAGUGAGCCAAGAUCGUGCCACUG [hsa-mir-1273d] | -0.179 | -0.147 | -0.172 | -0.0234 | -0.48
29 | CAGUGAGCUAUGAUCAUGUCCCUG [hsa-mir-1254-2] | -0.1 | 0.105 | 0.0243 | 0.362 | 0.526
30 | CAGUGCACCUUCAUGAACCG [hsa-mir-938] | 0.209 | 0.758 | 0.249 | 1.14 | -1.11
31 | CAGUGCUUUUAGAAAAUUUGUGUG [hsa-mir-581] | 0.00216 | -0.558 | -0.514 | -0.187 | -0.904
32 | CAGUGGCAGAUUUUCCCAUAG [hsa-mir-4727] | -0.261 | -0.439 | -0.543 | -0.00285 | -1.12
33 | CAGUGGCAUCUGUCAUUG [hsa-mir-4663] | -0.425 | -0.508 | -0.159 | -0.784 | -0.635
34 | CAGUGGGGACAUG [hsa-mir-4531] | 1.52 | 1.77 | 2.18 | 0.957 | -0.559
35 | CAGUGGUGCCAUCUCCCCUG [hsa-mir-5008] | -0.353 | -0.122 | -0.377 | 0.471 | -1.49
36 | CAGUGUUAGCUCCAGAAGCAUUG [hsa-mir-3170] | -0.107 | 0.171 | 0.0378 | 0.644 | 1.14
37 | CAGUUGUACUGUGGCUG [hsa-mir-1291] | 0.154 | 0.076 | 0.0428 | 0.0227 | 0.37
38 | CAUACAUAUGCCUACUACUACUUUCAUAUGUAGGCAUAUGUAUG [hsa-mir-7852] | -0.144 | -0.8 | -0.502 | -0.89 | -0.626
